Assay results as given in the DeepSol protein solubility set.

experiment: soluble on expression in E. coli; label from the status in PepcDB or PDB records

Soluble on expression in E. coli, not soluble:
MKLSQLGFFCAVVERGTIAAAAEQLHCVPSNITTRLRELEGQLGVALFNRERNRLLVTPEGRLLYRHATRLLALADETAALFAGDQAHGALRVGALDVALANHLPQRLARYRRESPGVELHIRPEHSLLLERLLMEGELDLIVTDGPIEHPLLASRLAFRERLLRVTPADLPAPTPEDLAGLELYVFGHTCHYRRQVDRWLAESAIQPRATLEIESYPSLFACIEAGLGFACVPESFVARRPSTRRGFHAEPVAGLDSSDIHFVWRKQQASPLIQGFIDSIGAD
MSQLSPKNKNDLRQCVLYEFIDGKPVFEAYKSFCDVIGDSCMDYVDFEFWFMRFANGNLNLDFNFDKSSSLSIFNIPIEILVKIMNELDWVSRLSMRQVSRAFRSIVDEESKMPKSLSFGFYDDTVFLQYDDSCVKYKDLEEEGHDDKIDIALFDFGVTLINPRLKLDYFEVLIDAKHGLDIDSDKCFKSLEALLKARNLPLPVKNVNIETNSGYEMNHAKNIIPYLKSGVLEKIVTNCDSSSFENIEIMKEIVELDQWKQAKHLEIDSLVKIPIENFLHFEHFELFFEHLCFQDVKERLLESSNFRHCTLQVMNSFDLEELAANFGIQYMGDDEGIRQTTFYEISTNSLEMTMFLDFVTFDRKF
MGLQSLKEPVENSVQDEFSHFWSQHGEWVEEPNVRRGGESGVQRLVMDNGQTLYAKRQTGHIYRSLLHPLGRPTVLREREALEGLRKLGVVVPEVVFCGAERGEDNAWRALLVTVALDGFDEIEKWLAAGGRERHGELFYERMLKEVASTLARMHLGRWQHSCLYIKHVFVRVTGDGPDAKVEVALLDLEKGRRRLTAQGAAQHDMKQLRRHSSFSAADWQKLVYFYQTAFGSSIKGLES
MTTLYLASGSPRRQELLTQLGFSFEQVVPGIEEQRRAQESAQQYVVRLAREKAQAGVALVPRDLPVLGADTIVVLNGEVLEKPRDAAHAAEMLRLLSGNTHQVMTAVALADSQQTLDCLVVTEVTFRTLSAQDITGYVASGEPLDKAGAYGIQGRGGCFVRKINGSYHAVVGLPLVETYELLSHFNALRDKRDKHDG
MGSDKIHHHHHHVALLQDELKIRKIHELLHMKLALPPYQRPYSWSVKSANTLFQDTYNAYHEGLQEYRVGSVILHKENGKYNIVDGQQRLTTISILLYCLGEKDLGLLQEKYNQLSNDVIVTNYEILSKRISELPKDEQNKYKNYLFERCSVVQIVTDSEQEAFQFFDSQNSRGKELTPHDLLKSYHLREMNDEEENQKIRIINQWENVNQDDLNDLFKIYLYPLTQWYKGKSGLGYSSSKIDVFKGIKTTNVFNYAIYHKASNLFVEQFNANGSNELLASRALNQFQLTQPLMAGKRFFYYTLHYRNLLEQVQRLVSKVHTEEQVPSRRTGDLYIKQLYECALLFFADRFGIENLSKAVMQQLYTWSYSLRLVMEAVYLQTINKYVRGEHERVNYGLGMFSEISEMKNGEELKLISLEQPKIENKNKEKYRDVYDLLCEWNRW

Soluble on expression in E. coli, soluble:
MSLKIVLIAPYRDLLETAITVKKDLNVDIELELGDLSEGVKVAREWEKKGVDIIISRGGTYQLIKESVSVPVVEIKVSAFDILRQFNGLIGCKEIIGVAGYKNVIYGCEVIGEILDLNLIKVVIEKEEEGLRQVAAAKEKGVSLIIGDTIGAYSAKRLGLKSRLITSGKEAVAAAVSESFRLAQALKAEKEKAEQIRTIVDFVHDGIIAIDKEGRVSIYNRMAEKIFKRPPAEAVGRKVETVVPNTRLYEVIETGKPQIGELQEVLGTMITTNRVPIVVGNEVVGAVATFQDVTMLQKVEQKIRRQLADRGLVAMYTFDEGHHHHHH
MTYDPKTAVKQDSFSGKEPFNILLLGTDTGAFGRKEVRGNSDTMILVTVNPAKKKLSLMSIPRDTMARMIGTDNFSVHKINAAYNIGGAKMAMRTTSKVLNVPIKYYISMNMGGMRKIVDGVGGVTVTPPLTFTYDGYTFTKGKTVHLNGSQALAYSRMRYDDPKGDYGRQLRQREVIMSVLEHALSFNTLKNLDSILGSVSTSLRTNLTFDSMVKISKNYRKCTNNMSSDYLHGVGAMIGDASYQVMSDRELQRTSNIVRNDLGLDSMDIDNNETYQNSMNSQFDWNSGDSNQVYYIYDPYTDELWNGDRAYLEHHHHHH
DVAVRTLSDVPSAAPQNLSLEVRNSKSIMIHWQPPAPATQNGQITGYKIRYRKASRKSDVTETLVSGTQLSQLIEGLDRGTEYNFRVAALTINGTGPATDWLSAETFESDLDETRVPEV
MADEATRRVVSEIPVLKTNAGPRDRELWVQRLKEEYQSLIRYVENNKNADNDWFRLESNKEGTRWFGKCWYIHDLLKYEFDIEFDIPITYPTTAPEIAVPELDGKTAKMYRGGKICLTDHFKPLWARNVPKFGLAHLMALGLGPWLAVEIPDLIQKGVIQHKEKCNQLEHHHHHH
